One experiment deals with T1, Skp1-FBXW7 complex (Homo sapiens, UniProt Q969H0).
T1 construct: human FBXW7 (residues 263–707); His6 (N, cleaved yes); made in house; host or cells: Escherichia coli
As to the kind of experiment: Isothermal titration calorimetry of DISC1 peptides. It counts as binding. The conditions noted are these: for Kd: NANO ITC, 20 mM HEPES-Na (pH 7.4), 200 mM NaCl, 2 mM β-mercaptoethanol, mean ± s.d. from two to three independent measurements, read-out: dissociation constant (KD). The protocol: Amino-terminal His6 tagged human FBXW7 (residues 263–707) and truncated Skp1 (Schulman et al., 2000) were co-expressed as a dicistronic message in Escherichia coli. The Skp1-FBXW7 complexes were purified by Ni2+-nitrilotriacetic acid (NTA) affinity chromatography followed by tobacco eth virus (TEV) protease cleavage of the His6 tag, and by anion exchange and gel filtration chromatography. For crystallization, the Skp1-FBXW7 complex was concentrated to 48 mg ml^–1 by ultrafiltration in 20 mM HEPES-Na (pH 7.4), 200 mM NaCl and 5 mM dithiothreitol (DTT). The DISC1 peptides were synthesized chemically and purified by HPLC.
All measurements were performed at 25 °C with a NANO ITC System (TA Instruments, New Castle, DE, USA). Protein samples were dialyzed against a solution containing 20 mM HEPES-Na (pH 7.4), 200 mM NaCl, and 2 mM β-mercaptoethanol. Typically, the concentrations of Skp1-FBXW7 and DISC1 peptides were […] and 1 mM, respectively. Titration data were analyzed using the TA Nano Analyze software, and the reported dissociation constants and their standard deviations were derived from two to three independent measurements.
To test whether phosphorylation of both the Thr198 and Ser202 sites in DISC1 is required for binding to FBXW7, we used isothermal titration calorimetry (ITC) to measure the binding affinity of various phosphorylated DISC1 peptides to the Skp1-FBXW7 complex (Supplementary Figure 5). […] Thus, specific interaction of DISC1 with the Skp1-FBXW7 complex requires simultaneous phosphorylation at Thr198 and Ser202 within the DISC1 PD motif.

Another experiment concerns DISC1, HEK293 cells. As to the kind of experiment: Endogenous DISC1 protein level in HEK293 cells, western blot. Particulars: cycloheximide 50 μg ml^–1, Figure 1a, n=3. It is filed as cell-based, human. As to the method: HEK293 cells were sourced from ATCC (CRL-1573) and cultured as described in the manufacturer’s protocol. DMEM (SIGMA) supplemented with 10% fetal bovine serum, 2 mM L-glutamine, […] penicillin-streptomycin at 37 °C in a humidified atmosphere of 5% CO2. The cells were passaged at about 80% confluency. Cells were transfected with plasmid DNA using polyfect transfection reagent (Qiagen) according to the manufacturer’s instructions. HEK293 cells were treated with the pharmacological agents cycloheximide (C7698) and MG132 (M7449) (Sigma-Aldrich) or DISC1 disruptor peptides (custom synthesized by Severn Biotech) as described in the text.
Briefly, detergent-soluble proteins were isolated from cells by disruption in lysis buffer 20 mM Tris-HCl (pH 7.5), 150 mM NaCl, 1 mM Na2EDTA, 1 mM EGTA, 1% triton, 2.5 mM sodium pyrophosphate, 1 mM β-glycerophosphate, 1 mM Na3VO4, 1 μg ml^–1 leupeptin, 10 mM DTT with Roche protease inhibitor, phosSTOP (Roche, 04906837001). Detergent-insoluble proteins were removed by centrifugation at 10 000 g for 10 min, and the soluble fraction was retained. Cell lysates were adjusted to equal protein amount (1 μg μl^–1) using cell lysis buffer. Cell lysates normalized for the protein concentration were incubated with mouse IgG (Millipore, 12487) Protein A agarose beads for 2 h at 4 °C. […] The complexes were analyzed on SDS PAGE. […]

Experiment [1] has as its target purified protein complex containing 6His-FBXW7 and Skp1, Q969H0;P63208. The experiment in a line: peptide array overlay, anti-6His detection, densitometry. The conditions noted are these: read off a plot.
In experiment [2] the test system is purified protein complex containing 6His-FBXW7 and Skp1. The experiment in a line: Peptide array overlay with 6His-FBXW7/Skp1, substitution and truncation analysis. The conditions noted are these: for binding potential for the FBXW7 complex vs dually-phosphorylated control sequence: densitometry of 6His probe. It counts as binding, human. The source says:
Peptide libraries were produced by automatic SPOT synthesis and synthesized on continuous cellulose membrane supports on Whatman 50 cellulose membranes using Fmoc-chemistry with the AutoSpot-Robot ASS 222 (Intavis Bioanalytical Instruments, Köln, Germany) as previously described.[17] Phosphorylation of peptide array peptides by constitutively active GSK3 (14-306, Millipore UK) was undertaken as previously described.[18] Phosphorylation was detected using a phospho-serine specific antibody (ab9332, Abcam, UK).
Figure 2 FBXW7 binds DISC1 via a PD motif to regulate turnover of DISC1. (a) HEK293 cells were transfected with FLAG-tagged FBXW7 or FLAG-tagged FBXW7 without the F-Box substrate-binding domain (Δ-F). Lysates were prepared and blotted for DISC1, c-MYC, FLAG and GAPDH. Relative levels of DISC1 expression were calculated (right hand panel). *=P<0.05 as measured by Student’s t-test, n=3 (b) HEK293 cells were transfected with FLAG-FBXW7 and GFP-DISC1 (upper panels) or FLAG-FBXW7 and V5-DISC1 (lower panels). FLAG was immunoprecipitated from cell lysates and blotted for FLAG, GFP and V5. (c) HEK293 cells were transfected with FLAG-DISC1. FLAG was immunoprecipitated from cell lysates and blotted for FLAG and endogenous FBXW7. (d) and (e) Peptide arrays of sequences containing the DISC1 PD were overlayed with a purified protein complex containing 6His-FBXW7 and Skp1. Arrays were then probed for His tag. (f) Sequences of known FBXW7 substrates contain a PD that is also present in DISC1.
Figure 3 Substitution analysis pinpoints novel binding motifs for FBXW7. (a) Peptide array grids containing substitution of residues within the core binding motif domain ^197PTPPGSH^202 (with a range of native and non-native residues) were overlaid with a purified protein complex containing 6His-FBXW7 and Skp1. mD and mE are N-methyl aspartic acid and N-methyl glutamic acids respectively. (d) and (e) are the D-forms of aspartic acid and glutamic acid. (b) Arrays were then probed for 6His and spots that were over 200% of the control identified by densitometry.

The target in experiment [3] is Skp1-FBXW7 complex (human FBXW7 residues 263-707 with truncated Skp1, His6 tag cleaved) (UniProt Q969H0). The experiment in a line: ITC; 25 °C, NANO ITC System; 20 mM HEPES-Na (pH 7.4), 200 mM NaCl, 2 mM β-mercaptoethanol; Skp1-FBXW7 and DISC1 peptides typically 50 mM and 1 mM (so in the source); two to three independent measurements.
In experiment [4] the target is T2, human FBXW7 (residues 263-707) (human, UniProt Q969H0 263-707).
T2 construct: human FBXW7, residues 263-707; The FBXW7 chain of m1, written alone for the pairs inside the crystal structure; also called Fbw7; source: E. coli, co-expressed with truncated Skp1, purified as the complex; not shown: His6, N-terminal, cleaved
As to the kind of experiment: crystal structure; Skp1-FBXW7 mixed with a twofold molar excess of the DISC1 peptide; crystallised from 100 mM HEPES-Na (pH 7.4), 1.2 M Li2SO4, hanging drop, 4 °C; one complex in the asymmetric unit. Particulars: both partners purified.

Where [5] appears, read: ITC, 25 °C, pH 7.4, singly phosphorylated peptides.

Several values for one entry are separate records, joined by “and”; a condition that tells them apart may be missing. Identical values can stand only once. Non-standard residues stand in square brackets, D forms with d. Residues, ends and D or L forms follow the SMILES beside them. No end group written: not given here. pT = C[C@@H](OP(=O)(O)O)[C@H](N)C(=O)O; pS = N[C@@H](COP(=O)(O)O)C(=O)O

T1 sequence (Q969H0 263-707, one chain of several): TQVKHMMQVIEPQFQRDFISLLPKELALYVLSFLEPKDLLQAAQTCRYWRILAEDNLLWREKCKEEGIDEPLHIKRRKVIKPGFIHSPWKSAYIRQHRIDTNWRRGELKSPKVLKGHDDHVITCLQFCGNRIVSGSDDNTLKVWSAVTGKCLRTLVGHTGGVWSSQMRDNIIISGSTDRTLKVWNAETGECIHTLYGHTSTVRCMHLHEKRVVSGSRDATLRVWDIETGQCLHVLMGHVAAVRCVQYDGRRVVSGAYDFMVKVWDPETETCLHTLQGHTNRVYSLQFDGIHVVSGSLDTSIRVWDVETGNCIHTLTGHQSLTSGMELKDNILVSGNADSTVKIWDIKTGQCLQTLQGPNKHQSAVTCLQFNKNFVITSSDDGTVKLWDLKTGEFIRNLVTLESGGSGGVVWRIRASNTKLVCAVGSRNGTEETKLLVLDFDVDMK
T2 sequence (Q969H0 263-707): as the sequence (Q969H0 263-707, one chain of several) above

Take `CC(C)[C@H](NC(=O)[C@H](CCC(=O)O)NC(=O)[C@@H]1CCCN1)C(=O)N1CCC[C@H]1C(=O)N1CCC[C@H]1C(=O)N[C@H](C(=O)N1CCC[C@H]1C(=O)N1CCC[C@H]1C(=O)NCC(=O)N[C@@H](COP(=O)(O)O)C(=O)N[C@@H](Cc1c[nH]cn1)C(=O)N[C@@H](CO)C(=O)N[C@@H](C)C(=O)N[C@@H](Cc1ccccc1)C(=O)N[C@H](C(=O)O)[C@@H](C)O)[C@@H](C)OP(=O)(O)O` [DISC1^193–207/pT198/pS202] (H-PEVPP[pT]PPG[pS]HSAFT-OH): the Kd on Skp1-FBXW7 complex (ITC, 25 °C) came to 1 ± 0.2 µM.
Consider `C[C@@H](OP(=O)(O)O)[C@H](NC(=O)[C@@H]1CCCN1)C(=O)N1CCC[C@H]1C(=O)N1CCC[C@H]1C(=O)NCC(=O)N[C@@H](COP(=O)(O)O)C(=O)N[C@@H](Cc1c[nH]cn1)C(=O)O` [DISC1^197–203/pT198/pS202] (H-P[pT]PPG[pS]H-OH), for which, on Skp1-FBXW7 complex (ITC, 25 °C), the Kd amounted to 17 ± 2 µM.
Turning to `C[C@@H]1C[C@@H]([C@H](O)CC2CC(=O)NC(=O)C2)C(=O)[C@@H](C)C1` [cycloheximide, reference compound], the “endogenous DISC1 level after cycloheximide” value in the experiment with DISC1, HEK293 cells was “rapidly decreased”.
Take “DISC1 peptide (residues 197-203, phosphorylated at Thr198 and Ser202) P197G; pT198d (D-Asp); pS202mE (N-methyl Glu)”: the percent of parent in experiment [1] was 250 % of control.
Same read-out and setting: for “DISC1 peptide (residues 197-203, phosphorylated at Thr198 and Ser202) pT198E; pS202d (D-Asp)” the value was 210 % of control.
Regarding “DISC1 peptide (residues 197-203, phosphorylated at Thr198 and Ser202) pT198E; pS202mD (N-methyl Asp)”, the percent of parent in experiment [1] was 230 % of control.
Consider “DISC1 peptide (residues 197-203, phosphorylated at Thr198 and Ser202) pT198d (D-Asp); pS202mE (N-methyl Glu)”, for which the percent of parent in experiment [1] is 220 % of control and 190 % of control.
For “DISC1 peptide (residues 197-203, phosphorylated at Thr198 and Ser202) pT198e (D-Glu); pS202mE (N-methyl Glu)”, the percent of parent in experiment [1] was 210 % of control and 280 % of control.
As to “DISC1^193–207/pS202: singly phosphorylated DISC1 peptide (PEVPPTPPG[pS]HSAFT)”, the “measurable enthalpy signal / ITC signal” value in the experiment with Skp1-FBXW7 complex (setting [5]) was “neither of the singly phosphorylated DISC1^193–207/pT198 and DISC1^193–207/pS202 peptides gave a measurable enthalpy signal”; with Skp1-FBXW7 complex (ITC, 25 °C, pH 7.4; singly phosphorylated peptides; pS202)), “No ITC signal”.
For “DISC1^193–207/pT198: singly phosphorylated DISC1 peptide (PEVPP[pT]PPGSHSAFT)”, the “measurable enthalpy signal / ITC signal” value with Skp1-FBXW7 complex (setting [5]) is “neither of the singly phosphorylated DISC1^193–207/pT198 and DISC1^193–207/pS202 peptides gave a measurable enthalpy signal”; in the experiment with Skp1-FBXW7 complex (ITC, 25 °C, pH 7.4; singly phosphorylated peptides; pT198)), “No ITC signal”.
In the case of “GmDPPGmEH [I14, substituted DISC1 PD core peptide GmDPPGmEH]”, the “binding potential for the FBXW7 complex vs dually-phosphorylated control sequence” value in experiment [2] is listed as “more than a twofold increase in binding potential”.
Consider “GmEPPGmEH [I11, substituted DISC1 PD core peptide GmEPPGmEH]”, for which the “binding potential for the FBXW7 complex vs dually-phosphorylated control sequence” value in experiment [2] is on record as “more than a twofold increase in binding potential”.
PTPPGSH: in experiment [2] (phosphorylation and truncation analysis), the “association of FBXW7 complex / core binding sequence” value is on record as “minimum core binding sequence within the PD domain”.
As to P[pT]PPG[pS]H [DISC1 peptide (residues 197-203, phosphorylated at Thr198 and Ser202)], the Kd in experiment [3] worked out at 17 µM.

B1: DISC1 peptide (residues 193-207, phosphorylated at Thr198 and Ser202) (peptide, UniProt Q9NRI5 193-207, looked up)
peptide: PEVPP[pT]PPG[pS]HSAFT
notes: printed residues: Pro193, Glu194, Val195, Pro196, Pro197, Thr198, Pro199, Pro200, Gly201, Ser202, His203; also called 15-residue core peptide; source: synthetic peptide, purified by HPLC
As for B1, the binding result in experiment [4] was “binds”. The Kd in experiment [3] stood at 1 µM.

Source of the values: paper PMC5984089, “FBXW7 regulates DISC1 stability via the ubiquitin-proteosome system” (Molecular Psychiatry, 2017).
